Experimental data published in patent publication US20220119505A1.

B1: F45 single-domain antibody (VHH)
VHH: QVQLQESGGGLVQPGGSLRLSCLVSGGTFSWYAMGWFRQAPGKEREFVATVSRGGGSSYYADSVKGRFTISRDNAKNTVYLQMNSLKPEDTAVYYCAAGRGAPSDTGRPDEYDYWGQGTQVTVSS
B2: F45::(GGGGS)3::F45 homodivalent protein construct (VHH)
chain: QVQLQESGGGLVQPGGSLRLSCLVSGGTFSWYAMGWFRQAPGKEREFVATVSRGGGSSYYADSVKGRFTISRDNAKNTVYLQMNSLKPEDTAVYYCAAGRGAPSDTGRPDEYDYWGQGTQVTVSSGGGGSGGGGSGGGGSQVQLQESGGGLVQPGGSLRLSCLVSGGTFSWYAMGWFRQAPGKEREFVATVSRGGGSSYYADSVKGRFTISRDNAKNTVYLQMNSLKPEDTAVYYCAAGRGAPSDTGRPDEYDYWGQGTQVTVSS

Molecular target: Atto 488 labelled FaeG (Escherichia coli)

| Binder | Hydrodynamic radius (nm) |
| --- | --- |
| B1 | 3.02 |
| B2 | 2.97 |
